Tests used:
[1] = molecular target: T1, extracellular domain human CD147-His (human, UniProt P35613 140-323); test: ELISA, extracellular domain human CD147-His on the plate
T1 construct: Made in FreeStyle-293F cells, purified on His-Trap HP; also called extracellular domain CD147-His; human CD147 extracellular domain antigen
T1 sequence: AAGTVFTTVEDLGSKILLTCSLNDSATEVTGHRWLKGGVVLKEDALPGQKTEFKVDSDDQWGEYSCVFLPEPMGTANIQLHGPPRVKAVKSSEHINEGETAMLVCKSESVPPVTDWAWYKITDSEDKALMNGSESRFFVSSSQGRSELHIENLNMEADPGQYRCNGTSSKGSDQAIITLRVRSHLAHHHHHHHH

[2] = molecular target: T2, extracellular domain cynomolgus monkey CD147-His (cynomolgus monkey); test: ELISA, extracellular domain cynomolgus monkey CD147-His on the plate
T2 construct: Made in FreeStyle-293F cells, purified on His-Trap HP; also called monkey extracellular domain CD147-His; cynomolgus monkey CD147 extracellular domain antigen
T2 chain: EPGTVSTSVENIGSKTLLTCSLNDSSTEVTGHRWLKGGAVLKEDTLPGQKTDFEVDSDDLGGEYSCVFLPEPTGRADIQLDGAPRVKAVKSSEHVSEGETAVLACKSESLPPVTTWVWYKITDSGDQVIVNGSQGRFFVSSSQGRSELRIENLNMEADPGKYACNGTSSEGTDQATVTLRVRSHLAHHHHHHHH

binding result [1]: binds
binding result [2]: no binding
B1: HAb18 (antibody, V domains shown)
VH: EVKLEESGGGLVQPGGSMKLSCVASGFTFSDAWMDWVRQSPEKGLEWVAEIRSKANNHAPYYTESVKGRFTISRDDSKSIIYLQMNNLRAEDTGIYYCTRDSTATHWGQGTLVTVSA
VL: SIVMTQTPTFLVVSAGDRVTITCKASQSVINDVAWYQQKPGQSPKLLIFYASNRNTGVPDRFTGSGYGTDFTFTISTVQAEDLAVYFCQQDYSPPFTFGSGTKLEIK
notes: also called HAb18G; target antibody HAb18

From WO2017061602A1 (dated 2017)
